{"source": "the DeepSol protein solubility set"}
{"experiment": "soluble on expression in E. coli; label from the status in PepcDB or PDB records"}
{"sequence": "MGSSHHHHHHGGTGENLYFQGGSGMKSVFITGGNRGIGLETARQMGKLGYYVIISCRDEEKAKAAIEKVSAEGVKADYVIMDVVDESSVAKAAAEVSKKVNGVLDALINNAGKAAPSGDMSRVNLDEMRRCYEVNVIGTVCVTNHFLEMVKKSSAGRIVNVGSIKGSCQLEVTALSHTPYNCSKAALNMYTVNLASSLKDTNVKVNCAHPGWVKTDMGGPQAPLEVTEGAETSVYLATLPADGPTGGFFHKRDRLPW", "soluble on expression in E. coli": "soluble"}
{"sequence": "MAHHHHHHMRPTCVCAVRAVRMYVPMRVAATGGATPSAASPAGDNASTSSEVRAARRITEAVLSARAKHKLQHRQPSPPTPVPPSVRAKAKAPRSPASDIEEGVVKDTVTVEVQTAARLALSYGKSAFMTHLVHQHDDAHQRPGTVSASEWDQPMVSDAGEPEASVMTASSETCAVLPLRARTPTIPRAAAGTPGLQMAIDKWWRDLTDEARVRWITSTPQGRRALQHATKLAKFRNVSCGQGRSSNSGAHVVPSMESMLTKYKNTLAQPRLPRAAALAPSPKESILRMKLQDEKGASVSPSSKPTTVSSALAGMMHAASENNANRRLLRDRADAVRREEQRKLWHQALVQFLGGASAFTFVHDVKDLQQPRTEAEQAVKREPGAQSGGGAGRATTVAPNTPAATATGNATPEEMADDGAPVAFSDGLLDMCEGLGIRSPRRAYVLSRVLPEVDAANASEGPPLSLAEVQDLAKKCSTEYDELRDDAMRTARETGSASAEDAVRAFEREQLALAVARVQKKLVMFQENLPLLKRCVNVLSK", "soluble on expression in E. coli": "not soluble"}
{"sequence": "MGSDKIHHHHHHMDKPFRRILLIKMRFHGDMLLTTPVISSLKKNYPDAKIDVLLYQDTIPILSENPEINALYGIKNKKAKASEKIANFFHLIKVLRANKYDLIVNLTDQWMVAILVRLLNARVKISQDYHHRQSAFWRKSFTHLVPLQGGNVVESNLSVLTPLGLDSLVKQTTMSYPPASWKRMRRELDHAGVGQNYVVIQPTARQIFKCWDNAKFSAVIDALHARGYEVVLTSGPDKDDLACVNEIAQGCQTPPVTALAGKVTFPELGALIDHAQLFIGVDSAPAHIAAAVNTPLISLFGATDHIFWRPWSNNMIQFWAGDYREMPTRDQRDRNEMYLSVIPAADVIAAVDKLLPSSTTGTSL", "soluble on expression in E. coli": "not soluble"}
{"sequence": "MAHHHHHHMTGADPDMLGSSAPNRPALMEPSVAPSPTSSPPATNAHANGSNSNGAGNVPLSQSTWRDSAAGSQPHGHGMPSTVRAADAPGVTEEKQAEGAFGADVHYNPATEHDFAVRGGLDGGAEGEHNSAKKIRLNNVSHFKNVPSRLNVQRQSTEADLVPCTYCGRKFLPGRVQKHEDCCIDRSKPLTARKGGALPARPSTGAATPRLAKPTPAAPAVESAATGKAKFCGGCGCKKSEPDQKFCTECGHKL", "soluble on expression in E. coli": "soluble"}
{"sequence": "ARICDVFSRFDETPLASASVAQVHAACLKTGEEVVVKVVRPGLKPIIGQDLAWLFILARMAERVSADARLLHPVQVVMDYEKTIYDELDLLREAANSSQLRRNFEGSDLLYVPQVYWDWCR", "soluble on expression in E. coli": "not soluble"}
{"sequence": "VARCQVPDCEADISELKGYHKRHRVCLRCATASFVVLDGENKRYCQQCGKFHLLPDFDEGKRSCRRKLERHNNRRKRKPVDKGGVA", "soluble on expression in E. coli": "soluble"}
{"sequence": "MARSQLSAAGEQHVIQLNQQGGKNLFCFPPISGFGIYFKDLALQLNHKAAVYGFHFIEEDSRIEQYVSRITEIQPEGPYVLLGYSAGGNLAFEVVQAMEQKGLEVSDFIIVDAYKKDQSITADTENDDSAAYLPEAVRETVMQKKRCYQEYWAQLINEGRIKSNIHFIEAGIQTETSGAMVLQKWQDAAEEGYAEYTGYGAHKDMLEGEFAEKNANIILNILDKINSDQKVLPNKHGSHHHHHH", "soluble on expression in E. coli": "soluble"}
{"sequence": "MADANATICYLNGLSLHTINEVEKILLALPKKGDRCEVQVTKPLNGTIGRSTGDVIASKSMQIHDEPRPLSLSPPLQKSEKSSKSKKLSEYSCMSSTKEQMETVEIRNGSNASAAKKLQCKVLTDQVRVSPIVSCNGVILELDVEVTIPDREEKKKLKLEIECPDFVPARIKIGNKWKKIV", "soluble on expression in E. coli": "not soluble"}
{"sequence": "MNMANVKIKIRDGLIDRLRNMSGITSDEAFARTIGTSRSTLVDVKTGEREPSLAFAIGIAQAFGLGLSEIVTWETETTAA", "soluble on expression in E. coli": "not soluble"}
{"sequence": "MTNEFEILKPGKLLLASANLLDPNFKRTVLLMCEHNEEGSIGFILNKPMEFKVCEAISGFDEIDEPLHMGGPVQVDTVHVLHTRGDVIDGAVEVIPGLFWGGDKEQLSYLINTGVIKASEVRFFLGYAGWSAGQLEAEFEEGSWYTADASSEQVFTDEYERMWSRSVRSKGGEYCYVANSPELPGMNLEHHHHHH", "soluble on expression in E. coli": "not soluble"}
{"sequence": "MAHHHHHHMLKKFSPLSFMVLQKRYNKSEQKIFDKIKNIINSNKNLRHTDDEKDKIEIINIDNEIINKENISFKCNIINEDSTKNENKKDNIDEMTNVNIYDDYFNINDEYNNVMSNDNDNVDIKSFIRETVDYYKSLQLKKKEDHLNVLNVKKKDYSNIKEYYNKNEEIKEIVQDNNFIWNNKNYDKKNIHSGFHSDIIYYDNYDTTKSKHNQNIQNGQNIQNGQNIQNGQNIQNNQNNQNIQNIQNNQNNQHCHNSTHEKNCGSYNFLTPAQVFFENNKEKLIQESYKYYKERENNINKEDYLYDENEGYYNYANMKTPIIRPNDKEGFLFNYEDDDYNNNDDEGEDDMTLEKGIMPTIEQIVCILKHEKVKDIKVIDLDKCGRRDIGMFLILCTGNTAKHNKKVGKLISKIFIDLEIPYISNVVYCYCNKFDDWIITHCGPLKINIVTKELRNLYDIENLFLYPHEHFDSTNFPSFFDYTPGIPPPYLVRSNASMDSYKNDDIYTKFLTEK", "soluble on expression in E. coli": "not soluble"}
{"sequence": "MPERLQVYKCEVCGNIVEVLNGGIGELVCCNQDMKLMSENTVDAAKEKHVPVIEKIDGGYKVKVGAVAHPMEEKHYIQWIELLADDKCYTQFLKPGQAPEAVFLIEAAKVVAREYCNIHGHWKAEN", "soluble on expression in E. coli": "soluble"}
{"sequence": "MSLKFSAKLVDDPSIEKSSSAIRLMCLSDTHGVHNNINKNTIFPADILLFAGDMTLFGNPEHAESFKNFITSLPVQHKVIISGNLDLPFDLKNYSHFTEWFSKFSYKNGPESIKTTFTEDQDIIYLEHQAVTIENVKIFGSPFTPAFGDFGFPTTKDTASKLWEQVPEDTDVILCHGPPHNICDMTSTGFHAGCPELRKSVERVKPAAVVFGHIHEAHGNTMIGNTLCCNVAIVNSNRDVAYGPTYIDLIQEGHHHHHH", "soluble on expression in E. coli": "soluble"}
{"sequence": "MGSDKIHHHHHHMDSFHSFNQHAFNRHAKTYHLFAHIQQQIAICLVQFLKQKHYAKVLDLGSGSGAVFNALERQNILIEEFIALDNSINMLKLHPTHSINIQKISLEHADFEEHVFCTYDLVVSSSSLQWARDLKSVLEKIALSSKEVALAIHTDFSLHEVHEFLGTPSPLRDLKTLKSLIKNAFKHFQIELENKRFALYFNRKQDCLNYLKKCGLLGGSTLSFKQKKHFFQNMAFEKLSYEVLLFSGIKRS", "soluble on expression in E. coli": "not soluble"}
{"sequence": "MAQMTMIQAITDALRVEMKNDPNVLVFGEDVGVNGGVFRATEGLQAEFGEDRVMDTPLAESGIGGLAVGLALEGFRPVPEIQFFGFVYEVMDSISGQLARMRYRSGGRWTAPVTVRSPFGGGVHTPELHADSLEGLVAQQPGLKVVIPSTPYDAKGLLISAIRDNDPVIYLEHMKLYRSFRQDVPEGEYTIDLGKADIKREGTDVSVIAYGAMVHAALKAAEELEKEGISLEVVDLRTVQPLDIETIIASVEKTGRVVVVQEAQKQAGIAANVVAEINDRAILNLEAPVVRVAAADTVFPFSQAESVWLPNHKDIVEAVNKVMNF", "soluble on expression in E. coli": "not soluble"}
{"sequence": "MTDYLADVQKYDSSADEAVVNKIVRHLGIALRNKDSALVSASDPKELERVREKWCEKKLGVGGSDADAAIAATAKAMADDRSKSRVTFYYLVAKNLGKLQTL", "soluble on expression in E. coli": "not soluble"}
{"sequence": "MGSDKIHHHHHHMSSPSFNVEEHKKMLQSYFNGQGFQRWASIYGDDKLSTVRSTVRQGHAVMMDKAFEWLQKTGLPKGSKILDAGCGTGLFTIRLAKSGYRVKAADIAEQMVNKTREDAEKAGVAGNVEFEVNSIESVSGTFDAVVCFDVLIHYPAEGFAHAFSNLAGLTKGPIIFTYAPFNNILAFQHWIGGFFPKKERRTTIQMIKDKEMQRVLSELGLKIVSQQKISFGFYHTMLMHVARR", "soluble on expression in E. coli": "not soluble"}
{"sequence": "MTGMTNVTKLASEPSGQEFLVFTLGDEEYGIDILKVQEIRGYDQVTRIANTPAFIKGVTNLRGVIVPIVDLRIKFSQVDVDYNDNTVVIVLNLGQRVVGIVVDGVSDVLSLTAEQIRPAPEFAVTLSTEYLTGLGALGDRMLILVNIEKLLNSEEMALLDSAASEVA", "soluble on expression in E. coli": "soluble"}
{"sequence": "MSLGDLLTFATGHKYYGINFDEDERGWYYREWAPEAYEVYLTGDFNDWDRRSHPLTRNEFGVWQIFLPYDLYQKRFVHKSKIKVQIVGANGTHDRIPAYITRVVQDTETTDFSGQLWFPQKPFEWTDRDFNLRKIKNPIIYEAHVGMAQEKEGVGTYREFADKIVPRIRQMGYNSIQLMAVMEHPYYGSFGYHVSNFFAPSSRFGTPEDLKYLVDRAHKFGLAVIMDVVHSHAVKNLSEGLNEFDGSDHQYFHPGDRGYHTGWDSKLFDYGKLEVKRFLLSNLRYWLEEYHFDGFRFDGVTSMLYFDHGMKTFDSYDTYFKGGVDFDAVTYLQLANEVTHRYLKDSITIAEDVSGMPGLSRSIRDGGVGFDYRLAMGIPDFWIKYLKHLQDEQWNIYEMWSTLTNRRYKEKTIAYAESHDQAMVGDKTIAFWLMDKEMYFHMQVDDPNPVIDRGIAIHKLLRLFTFALGGEGYLNFMGNEFGHPEWIDFPREGNGWSYQYARRQWSLVDNPKLKYQYLGAFDEAMMRLVRKTRLLAAEPAQQLNMDDHNKVIIFERNNMIFVFNFSVSNSVFDYKFKSFAPGTFEIVLNSDDTRFGGHGRVDDTLEYHTNTEGQLSIYTPNRSVLVFQRKEASEGHHHHHH", "soluble on expression in E. coli": "not soluble"}
{"sequence": "GSHMATEPKAGRPSDYMPEVADDICSLLSSGESLLKVCKRPGMPDKSTVFRWLAKHEDFRDKYAKATEARADSIFEEIFEIADNAIPDAAEVAKARLRVDTRKWALARMNPRKYGDKVTNELVGKDGGAIQIETSPMSTLFGK", "soluble on expression in E. coli": "soluble"}
{"sequence": "SLASPKRWTTNGLSTNQTLCYTLGEGQPSPFFYLRSARKMPQSVEQHIAAITDRIKDFVRFLDREEVAPVLAELREMFARELRATEGFASHERELHDRIRHESDYEQLRAIHDELNVLEMERFLAISSVSALHANCTEYRDILADRALALAEDEMEHDGRGRAPCPYALCSMGSDGREEQTLITDQDYLIVYGDGGGEAADEWFREFSELIVERLAQIGFKKCTGDIMPSNPTWRGSLSQWRRKLLAIVRYEYEDYAKNLMDLIVISDARHVAGDRDLAATLIATIRALEKDYFQVLWGMAKAATEMKLALGFLKRLWTEGSGEHKGEFNLKLLAWAPLVMNVRILAINQGVPATNTVKRIEHLAREGSFSPSFANGLVEAYEVLTRHRILLQIKVIKGIQKSSYYLNPYTLPAEEREAIRQALLRIEDLQRTIHTNFSIM", "soluble on expression in E. coli": "not soluble"}
{"sequence": "AEDAKLRINGATVTSATNKVTNYIPGVTINLKKETTGAEKLTIQDQSDEKAASMITSFVNTYNALTSTMKTYTGKGTILQASAADLEANRALNNVFQHKKDGNTLFDFGISVDKEGVLKVDETAMKKMVAEDPTAVERFFFGIGGIGDELYQSLNKTFGSTGFISDETTSMTNEINKLNLKLTDITSRNDTLLTNITDQYNKWLEMMQAMQSDAMTLDALIDGMNSSNK", "soluble on expression in E. coli": "not soluble"}
{"sequence": "SLVVAIDPGHGGQDSGAVGPTGKLEKNVTLAIGRELARQINATPGMKAYMTRDSDVFIPLPMRAQRARAAKADIFISIHADAADNRAATGSSVYVLSTRGASSQRARWLADKENAADLVGGVRLQKAEPTLANVLLDLAQSGYMKASEDAADHVLGSLKRVANNHKSEVEHANFAVLRTSDMPAMLVETAFISNAYEERRLVDPAFQRQLAAAVLEGVITFFTNQPPPGTLFALRAQAEPATTGGSVITSTH", "soluble on expression in E. coli": "not soluble"}
